The values below come from PMC2914788, “Phage-Derived Fully Human Monoclonal Antibody Fragments to Human Vascular Endothelial Growth Factor-C Block Its Interaction with VEGF Receptor-2 and 3” (PLoS ONE, 2010).

This assay concerns the target T1, VC2.2.2 VH-myc (human).
T1 construct: as the VH of m13 (VC2.2.2), from Glu1 to Ser113; Chothia numbering; also called anti-VEGF-C VC2.2.2 VH; single VH-domain of VC2.2.2; source: E. coli (pHEN1), IPTG-induced, bacterial supernatant (ELISA); protein-A purified (SEC); not shown: myc, C-terminal, kept
Briefly: ELISA; bacterial supernatant of IPTG-induced cultures expressing VH-myc on ΔNΔC-VEGF-C or alpha-2-macroglobulin; detection with anti-myc and anti-mouse HRP or with protein-A-HRP. The following applies: one partner purified. On the technique in general: ELISA stands for enzyme-linked immunosorbent assay.

B1: ΔNΔC-VEGF-C (variant not stated for the experiment) (ligand, human, UniProt P49767 112-227, looked up)
chain: AHYNTEILKSIDNEWRKTQCMPREVCIDVGKEFGVATNTFFKPPCVSVYRCGGCCNSEGLQCMNTSTSYLSKTLFEITVPLSQGPKPVTISFANHTSCRCMSKLDVYRQVHSIIRR
notes: fully processed ΔNΔC form of human VEGF-C; also called fully processed human VEGF-C
Turning to B1, the binding result was “binds”.
